Test results: patent publication US20240059799A1 (Pfizer, published 2024)
Positions count from the first letter of the chain named. Each block holds one binder with its values, some of them ahead of it.

Legend:
recombinant human TL1A [1] = target: T1, recombinant human TL1A (human, UniProt O95150 71-251); test: cell-based or functional assay
T1 chain: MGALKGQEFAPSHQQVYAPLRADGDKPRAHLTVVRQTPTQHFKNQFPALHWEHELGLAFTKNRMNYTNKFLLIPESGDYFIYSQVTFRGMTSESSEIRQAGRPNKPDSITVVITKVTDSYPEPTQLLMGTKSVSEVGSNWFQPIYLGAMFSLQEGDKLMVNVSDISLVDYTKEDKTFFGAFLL

[2] = target: T2, recombinant cynomolgus monkey TL1A (cynomolgus monkey, UniProt O95150 72-251 (human entry)); test: cell-based or functional assay
T2 chain: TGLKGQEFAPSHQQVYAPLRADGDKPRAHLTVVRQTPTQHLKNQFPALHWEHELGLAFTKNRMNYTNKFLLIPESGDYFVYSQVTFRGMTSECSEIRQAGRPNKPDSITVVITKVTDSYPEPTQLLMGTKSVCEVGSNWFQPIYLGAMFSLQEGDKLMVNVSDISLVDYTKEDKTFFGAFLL

human IL-12 [3] = target: T3, human IL-12 (human, UniProt P29460 23-328; P29459 23-219); test: cell-based or functional assay
T3 sequence 1: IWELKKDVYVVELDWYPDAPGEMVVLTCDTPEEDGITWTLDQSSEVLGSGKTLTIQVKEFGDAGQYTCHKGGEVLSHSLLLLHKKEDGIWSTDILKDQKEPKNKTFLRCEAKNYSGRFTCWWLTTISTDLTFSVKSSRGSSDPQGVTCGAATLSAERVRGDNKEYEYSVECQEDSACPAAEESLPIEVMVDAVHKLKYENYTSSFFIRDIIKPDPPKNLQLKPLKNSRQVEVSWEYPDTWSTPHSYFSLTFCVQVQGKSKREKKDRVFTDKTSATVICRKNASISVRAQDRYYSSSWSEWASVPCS
T3 sequence 2: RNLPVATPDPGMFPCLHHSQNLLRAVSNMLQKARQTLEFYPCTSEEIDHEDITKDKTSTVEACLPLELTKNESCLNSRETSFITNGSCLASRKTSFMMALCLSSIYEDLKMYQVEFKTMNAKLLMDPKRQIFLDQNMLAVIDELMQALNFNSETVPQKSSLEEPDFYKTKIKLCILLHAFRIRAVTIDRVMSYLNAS

cynomolgus monkey IL-12 = target: T4, cynomolgus monkey IL-12 (cynomolgus monkey); test: cell-based or functional assay
T4 chain 1: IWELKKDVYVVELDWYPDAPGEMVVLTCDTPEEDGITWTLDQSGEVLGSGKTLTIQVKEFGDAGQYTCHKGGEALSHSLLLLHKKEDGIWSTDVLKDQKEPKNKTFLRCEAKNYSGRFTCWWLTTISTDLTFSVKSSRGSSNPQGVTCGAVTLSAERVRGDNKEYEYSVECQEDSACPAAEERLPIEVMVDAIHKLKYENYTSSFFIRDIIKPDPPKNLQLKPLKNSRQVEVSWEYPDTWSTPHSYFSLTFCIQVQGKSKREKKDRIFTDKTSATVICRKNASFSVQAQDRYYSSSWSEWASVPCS
T4 chain 2: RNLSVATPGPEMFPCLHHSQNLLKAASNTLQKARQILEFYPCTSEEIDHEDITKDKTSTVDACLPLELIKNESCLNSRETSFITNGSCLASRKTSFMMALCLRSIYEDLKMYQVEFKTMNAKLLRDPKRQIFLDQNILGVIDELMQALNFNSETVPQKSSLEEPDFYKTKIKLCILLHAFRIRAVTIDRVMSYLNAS

human IL-23 [4] = target: T5, human IL-23 (human, UniProt P29460 23-328; Q9NPF7 20-189); test: cell-based or functional assay
T5 sequence 1: T3 sequence 1
T5 sequence 2: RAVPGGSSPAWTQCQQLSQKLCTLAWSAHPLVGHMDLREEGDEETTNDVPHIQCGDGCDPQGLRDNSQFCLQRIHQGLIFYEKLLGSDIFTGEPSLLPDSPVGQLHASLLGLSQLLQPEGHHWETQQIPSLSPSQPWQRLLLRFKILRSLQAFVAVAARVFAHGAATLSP

cynomolgus monkey IL-23 = target: T6, cynomolgus monkey IL-23 (cynomolgus monkey, limits assumed); test: cell-based or functional assay
T6 chain 1: T4 chain 1
T6 chain 2: T5 sequence 2 with T12A, H75R, L131P

rat IL-12 = target: T7, rat IL-12 (rat, UniProt P43432 23-335; Q9R103 23-215, limits assumed); test: SPR, antibody captured by anti-human Fc, cytokine injected
T7 chain 1: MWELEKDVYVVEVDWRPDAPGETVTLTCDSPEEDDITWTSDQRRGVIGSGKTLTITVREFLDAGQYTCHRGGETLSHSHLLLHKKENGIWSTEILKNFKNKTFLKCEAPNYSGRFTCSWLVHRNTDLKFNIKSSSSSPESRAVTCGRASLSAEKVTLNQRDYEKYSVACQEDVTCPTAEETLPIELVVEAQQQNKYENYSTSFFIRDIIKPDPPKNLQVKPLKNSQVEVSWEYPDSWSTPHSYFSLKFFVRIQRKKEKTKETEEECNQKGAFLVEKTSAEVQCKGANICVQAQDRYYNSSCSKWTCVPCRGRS
T7 chain 2: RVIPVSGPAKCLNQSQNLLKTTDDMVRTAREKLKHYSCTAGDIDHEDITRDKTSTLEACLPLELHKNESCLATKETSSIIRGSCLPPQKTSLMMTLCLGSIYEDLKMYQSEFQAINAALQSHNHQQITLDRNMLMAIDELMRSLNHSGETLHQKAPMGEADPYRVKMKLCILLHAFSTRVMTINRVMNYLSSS
Description: In order to determine binding to TL1A, kinetic assays were conducted at 37° C. using a collection rate of 10 Hz on a Biacore™ T200 instrument (GE Healthcare). […] For the analysis of the p40 binding arm, kinetic assays were conducted at 37° C. using a collection rate of 10 Hz on a Biacore™ 8 K+ instrument (GE Healthcare).

recombinant human TL1A [5] = target: T8, recombinant human TL1A (human, UniProt O95150 71-251); test: cell-based or functional assay
T8 chain: T1 chain

human IL-12 [6] = target: T9, human IL-12 (human, UniProt P29460 23-328; P29459 23-219); test: cell-based or functional assay; remark: listed apart in the source
T9 sequence 1: T3 sequence 1
T9 sequence 2: T3 sequence 2

human IL-23 [7] = target: T10, human IL-23 (human, UniProt P29460 23-328; Q9NPF7 20-189); test: cell-based or functional assay; remark: listed apart in the source
T10 sequence 1: T3 sequence 1
T10 sequence 2: T5 sequence 2

NF-κB assay in TF-1 reporter cells, neutralization relative to TL1A-0002 (recombinant human TL1A [1]): ≤ 2 fold
NF-κB assay in TF-1 reporter cells, fold-change of neutralization across species (human against cynomolgus monkey TL1A) [2]: 1.7 fold
STAT4 activation in human whole blood, fold decreased potency (IC50) compared to p40-0003 (human IL-12 [3]): ~2.9 fold
KIT-225 STAT4 phosphorylation, fold-change of potency across species (human against cynomolgus monkey IL-12) (cynomolgus monkey IL-12): 1.2 fold
STAT3 activation in human whole blood, fold decreased potency (IC50) compared to p40-0003 (human IL-23 [4]): ~2.9 fold
KIT-225 STAT3 phosphorylation, fold-change of potency across species (human against cynomolgus monkey IL-23) (cynomolgus monkey IL-23): 1.2 fold
binding result (rat IL-12): no binding (tested: 200 nM)
B1: p40TL1A-0033 (bispecific antibody, human IgG1, kappa)
chain 1: not shown
chain 2: QVQLVQSGAEVKKPGASVKVSCKASGYDYTYYGISWVRQAPGQGLEWMGWISTYNTGTHYAPSLQGRVTMTTDTSTSTAYMELRSLRSDDTAVYYCARESYYGSGAFRGGMDVWGQGTTVTVSSASTKGPSVFPLAPSSKSTSGGTAALGCLVKDYFPEPVTVSWNSGALTSGVHTFPAVLQSSGLYSLSSVVTVPSSSLGTQTYICNVNHKPSNTKVDKKVEPKSC
heavy: EVQLVQSGAEVKKPGESLKISCKGSGYSFTTYWLGWVRQMPGKGLDWIGIMSPVDSDIRYSPSFQGQVTMSVDKSITTAYLQWNSLKASDTAMYYCARRRPGQGYFDFWGQGTLVTVSSASTKGPSVFPLAPSSKSTSGGTAALGCLVKDYFPEPVTVSWNSGALTSGVHTFPAVLQSSGLYSLSSVVTVPSSSLGTQTYICNVNHKPSNTKVDKKVEPKSCDKTHTCPPCPAPEAAGAPSVFLFPPKPKDTLMISRTPEVTCVVVDVSHEDPEVKFNWYVDGVEVHNAKTKPREEQYNSTYRVVSVLTVLHQDWLNGKEYKCKVSNKALPAPIEKTISKAKGQPREPQVCTLPPSREEMTKNQVSLWCLVKGFYPSDIAVEWESNGQPENNYKTTPPVLDSDGSFFLYSKLTVDKSRWQQGNVFSCSVLHEALHSHYTQKSLSLSPGK
light: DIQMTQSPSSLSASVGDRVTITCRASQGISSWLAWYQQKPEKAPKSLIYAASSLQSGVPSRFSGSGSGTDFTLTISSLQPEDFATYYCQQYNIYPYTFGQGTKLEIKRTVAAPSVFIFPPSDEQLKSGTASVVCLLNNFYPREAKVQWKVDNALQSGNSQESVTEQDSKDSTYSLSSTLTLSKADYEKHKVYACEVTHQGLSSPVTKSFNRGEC
notes: KiH modified-Fd bispecific: TL1A VL-CL-Fc (hole), TL1A mFd, p40 HC (knob), p40 LC; LS

NF-κB assay IC50 (TF-1 reporter cells) (recombinant human TL1A [5]): 0.131 nM
NF-κB assay, Bioactivity relative to TL1A-0372 (recombinant human TL1A [5]): 1.3 fold
KIT-225 STAT4 assay IL-12, Bioactivity relative to p40-0003 (human IL-12 [6]): 1.4 fold
KIT-225 STAT4 assay IL-12 IC50 (human IL-12 [6]): 4.8 nM
KIT-225 STAT3 assay IL-23, Bioactivity relative to p40-0003 (human IL-23 [7]): 1.4 fold
KIT-225 STAT3 assay IL-23 IC50 (human IL-23 [7]): 2.3 nM
B2: p40TL1A-0033 bispecific antibody (bispecific antibody, human IgG1, kappa)
heavy: B1 heavy
light: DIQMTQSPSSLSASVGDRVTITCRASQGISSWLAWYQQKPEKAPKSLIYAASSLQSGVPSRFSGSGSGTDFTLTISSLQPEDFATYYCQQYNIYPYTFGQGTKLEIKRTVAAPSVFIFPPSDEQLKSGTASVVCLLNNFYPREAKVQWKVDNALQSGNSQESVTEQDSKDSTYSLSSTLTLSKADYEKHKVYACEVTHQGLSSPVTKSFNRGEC
chain 1: not shown
chain 2: B1 chain 2
notes: Single cell KiH, modified Fd format; IgG1 effector-function-minimized Fc with LS mutations
